As a reminder, the stoichiometry N is the number of molecules, sites or subunits per partner or assembly.

Assay [1] concerns the target Tachlorophyllase H76S/E79S/C270S triple variant (Triticum aestivum). In words: SEC-MALS + other: dynamic light scattering.
The target of assay [2] is Triticum aestivum chlorophyllase (Tachlorophyllase), wild type (Triticum aestivum). In words: SEC-MALS + other: dynamic light scattering.

With “Tachlorophyllase H76S/E79S/C270S triple variant (enzyme)”, the stoichiometry N in assay [1] was determined as 2.
As to “Triticum aestivum chlorophyllase (Tachlorophyllase), wild type (enzyme)”, the stoichiometry N in assay [2] stood at 2.

The record behind these values is publication PMC11659893.
